Source: publication PMC7367873, “Dissecting the sequence determinants for dephosphorylation by the catalytic subunits of phosphatases PP1 and PP2A” (Nature Communications, 2020)

Legend:
GFP-14-3-3β = GFP-14-3-3β co-IP with LC-MS/MS, untreated GFP-14-3-3β versus GFP control (14-3-3 interactome); type: binding, human; details: untreated vs GFP; LFQ intensities; 3 replicates each
[1] = tested on: GFP-14-3-3β and its binding proteins; assay: GFP-14-3-3β co-IP with LC-MS/MS label-free quantification, untreated versus PP1c-treated; set-up: species or system human; details: PP1 vs untreated; LFQ intensities; 3 replicates each

Molecule | Difference (log2), untreated vs GFP (GFP-14-3-3β) | Difference (log2), PP1 vs untreated [1]
OSBPL8 (protein, UniProt Q9BZF1 1-889, looked up) Oxysterol-binding …: MEGGLADGEPDRTSLLGDSKDVLGPSTVVANSDESQLLTPGKMSQRQGKEAYPTPTKDLHQPSLSPASPHSQGFERGKEDISQNKDESSLSMSKSKSESKLYNGSEKDSSTSSKLTKKESLKVQKKNYREEKKRATKELLSTITDPSVIVMADWLKIRGTLKSWTKLWCVLKPGVLLIYKTQKNGQWVGTVLLNACEIIERPSKKDGFCFKLFHPLEQSIWAVKGPKGEAVGSITQPLPSSYLIIRATSESDGRCWMDALELALKCSSLLKRTMIREGKEHDLSVSSDSTHVTFYGLLRANNLHSGDNFQLNDSEIERQHFKDQDMYSDKSDKENDQEHDESDNEVMGKSEESDTDTSERQDDSYIEPEPVEPLKETTYTEQSHEELGEAGEASQTETVSEENKSLIWTLLKQVRPGMDLSKVVLPTFILEPRSFLDKLSDYYYHADFLSEAALEENPYFRLKKVVKWYLSGFYKKPKGLKKPYNPILGETFRCLWIHPRTNSKTFYIAEQVSHHPPISAFYVSNRKDGFCLSGSILAKSKFYGNSLSAILEGEARLTFLNRGEDYVMTMPYAHCKGILYGTMTLELGGTVNITCQKTGYSAILEFKLKPFLGSSDCVNQISGKLKLGKEVLATLEGHWDSEVFITDKKTDNSEVFWNPTPDIKQWRLIRHTVKFEEQGDFESEKLWQRVTRAINAKDQTEATQEKYVLEEAQRQAARDRKTKNEEWSCKLFELDPLTGEWHYKFADTRPWDPLNDMIQFEKDGVIQTKVKHRTPMVSVPKMKHKPTRQQKKVAKGYSSPEPDIQDSSGSEAQSVKPSTRRKKGIELGDIQSSIESIKQTQEEIKRNIMALRNHLVSSTPATDYFLQQKDYFIIFLLILLQVIINFMFK | 0.9951 log2 | 0.5791 log2
COPA (protein, UniProt P53621 1-1224, looked up) Coatomer subunit alpha: MLTKFETKSARVKGLSFHPKRPWILTSLHNGVIQLWDYRMCTLIDKFDEHDGPVRGIDFHKQQPLFVSGGDDYKIKVWNYKLRRCLFTLLGHLDYIRTTFFHHEYPWILSASDDQTIRVWNWQSRTCVCVLTGHNHYVMCAQFHPTEDLVVSASLDQTVRVWDISGLRKKNLSPGAVESDVRGITGVDLFGTTDAVVKHVLEGHDRGVNWAAFHPTMPLIVSGADDRQVKIWRMNESKAWEVDTCRGHYNNVSCAVFHPRQELILSNSEDKSIRVWDMSKRTGVQTFRRDHDRFWVLAAHPNLNLFAAGHDGGMIVFKLERERPAYAVHGNMLHYVKDRFLRQLDFNSSKDVAVMQLRSGSKFPVFNMSYNPAENAVLLCTRASNLENSTYDLYTIPKDADSQNPDAPEGKRSSGLTAVWVARNRFAVLDRMHSLLIKNLKNEITKKVQVPNCDEIFYAGTGNLLLRDADSITLFDVQQKRTLASVKISKVKYVIWSADMSHVALLAKHAIVICNRKLDALCNIHENIRVKSGAWDESGVFIYTTSNHIKYAVTTGDHGIIRTLDLPIYVTRVKGNNVYCLDRECRPRVLTIDPTEFKFKLALINRKYDEVLHMVRNAKLVGQSIIAYLQKKGYPEVALHFVKDEKTRFSLALECGNIEIALEAAKALDDKNCWEKLGEVALLQGNHQIVEMCYQRTKNFDKLSFLYLITGNLEKLRKMMKIAEIRKDMSGHYQNALYLGDVSERVRILKNCGQKSLAYLTAATHGLDEEAESLKETFDPEKETIPDIDPNAKLLQPPAPIMPLDTNWPLLTVSKGFFEGTIASKGKGGALAADIDIDTVGTEGWGEDAELQLDEDGFVEATEGLGDDALGKGQEEGGGWDVEEDLELPPELDISPGAAGGAEDGFFVPPTKGTSPTQIWCNNSQLPVDHILAGSFETAMRLLHDQVGVIQFGPYKQLFLQTYARGRTTYQALPCLPSMYGYPNRNWKDAGLKNGVPAVGLKLNDLIQRLQLCYQLTTVGKFEEAVEKFRSILLSVPLLVVDNKQEIAEAQQLITICREYIVGLSVETERKKLPKETLEQQKRICEMAAYFTHSNLQPVHMILVLRTALNLFFKLKNFKTAATFARRLLELGPKPEVAQQTRKILSACEKNPTDAYQLNYDMHNPFDICAASYRPIYRGKPVEKCPLSGACYSPEFKGQICRVTTVTEIGKDVIGLRISPLQFR | -0.09761 log2 | 0.5643 log2
MYO1B (protein, UniProt O43795 1-1136, looked up) Unconventional myosin-Ib: MAKMEVKTSLLDNMIGVGDMVLLEPLNEETFINNLKKRFDHSEIYTYIGSVVISVNPYRSLPIYSPEKVEEYRNRNFYELSPHIFALSDEAYRSLRDQDKDQCILITGESGAGKTEASKLVMSYVAAVCGKGAEVNQVKEQLLQSNPVLEAFGNAKTVRNDNSSRFGKYMDIEFDFKGDPLGGVISNYLLEKSRVVKQPRGERNFHVFYQLLSGASEELLNKLKLERDFSRYNYLSLDSAKVNGVDDAANFRTVRNAMQIVGFMDHEAESVLAVVAAVLKLGNIEFKPESRVNGLDESKIKDKNELKEICELTGIDQSVLERAFSFRTVEAKQEKVSTTLNVAQAYYARDALAKNLYSRLFSWLVNRINESIKAQTKVRKKVMGVLDIYGFEIFEDNSFEQFIINYCNEKLQQIFIELTLKEEQEEYIREDIEWTHIDYFNNAIICDLIENNTNGILAMLDEECLRPGTVTDETFLEKLNQVCATHQHFESRMSKCSRFLNDTSLPHSCFRIQHYAGKVLYQVEGFVDKNNDLLYRDLSQAMWKASHALIKSLFPEGNPAKINLKRPPTAGSQFKASVATLMKNLQTKNPNYIRCIKPNDKKAAHIFNEALVCHQIRYLGLLENVRVRRAGYAFRQAYEPCLERYKMLCKQTWPHWKGPARSGVEVLFNELEIPVEEYSFGRSKIFIRNPRTLFKLEDLRKQRLEDLATLIQKIYRGWKCRTHFLLMKKSQIVIAAWYRRYAQQKRYQQTKSSALVIQSYIRGWKARKILRELKHQKRCKEAVTTIAAYWHGTQARRELRRLKEEARNKHAIAVIWAYWLGSKARRELKRLKEEARRKHAVAVIWAYWLGLKVRREYRKFFRANAGKKIYEFTLQRIVQKYFLEMKNKMPSLSPIDKNWPSRPYLFLDSTHKELKRIFHLWRCKKYRDQFTDQQKLIYEEKLEASELFKDKKALYPSSVGQPFQGAYLEINKNPKYKKLKDAIEEKIIIAEVVNKINRANGKSTSRIFLLTNNNLLLADQKSGQIKSEVPLVDVTKVSMSSQNDGFFAVHLKEGSEAASKGDFLFSSDHLIEMATKLYRTTLSQTKQKLNIEISDEFLVQFRQDKVCVKFIQGNQKNGSVPTCKRKNNRLLEVAVP | -1.083 log2 | 0.5838 log2
CPT1A (protein, UniProt P50416 2-773, looked up) Carnitine …: AEAHQAVAFQFTVTPDGIDLRLSHEALRQIYLSGLHSWKKKFIRFKNGIITGVYPASPSSWLIVVVGVMTTMYAKIDPSLGIIAKINRTLETANCMSSQTKNVVSGVLFGTGLWVALIVTMRYSLKVLLSYHGWMFTEHGKMSRATKIWMGMVKIFSGRKPMLYSFQTSLPRLPVPAVKDTVNRYLQSVRPLMKEEDFKRMTALAQDFAVGLGPRLQWYLKLKSWWATNYVSDWWEEYIYLRGRGPLMVNSNYYAMDLLYILPTHIQAARAGNAIHAILLYRRKLDREEIKPIRLLGSTIPLCSAQWERMFNTSRIPGEETDTIQHMRDSKHIVVYHRGRYFKVWLYHDGRLLKPREMEQQMQRILDNTSEPQPGEARLAALTAGDRVPWARCRQAYFGRGKNKQSLDAVEKAAFFVTLDETEEGYRSEDPDTSMDSYAKSLLHGRCYDRWFDKSFTFVVFKNGKMGLNAEHSWADAPIVAHLWEYVMSIDSLQLGYAEDGHCKGDINPNIPYPTRLQWDIPGECQEVIETSLNTANLLANDVDFHSFPFVAFGKGIIKKCRTSPDAFVQLALQLAHYKDMGKFCLTYEASMTRLFREGRTETVRSCTTESCDFVRAMVDPAQTVEQRLKLFKLASEKHQHMYRLAMTGSGIDRHLFCLYVVSKYLAVESPFLKEVLSEPWRLSTSQTPQQQVELFDLENNPEYVSSGGGFGPVADDGYGVSYILVGENLINFHISSKFSCPETDSHRFGRHLKEAMTDIITLFGLSSNSKK | 1.035 log2 | 0.596 log2
ATXN2 (protein, UniProt Q99700 1-1313, looked up) Ataxin-2: MRSAAAAPRSPAVATESRRFAAARWPGWRSLQRPARRSGRGGGGAAPGPYPSAAPPPPGPGPPPSRQSSPPSASDCFGSNGNGGGAFRPGSRRLLGLGGPPRPFVVLLLPLASPGAPPAAPTRASPLGARASPPRSGVSLARPAPGCPRPACEPVYGPLTMSLKPQQQQQQQQQQQQQQQQQQQQQQQPPPAAANVRKPGGSGLLASPAAAPSPSSSSVSSSSATAPSSVVAATSGGGRPGLGRGRNSNKGLPQSTISFDGIYANMRMVHILTSVVGSKCEVQVKNGGIYEGVFKTYSPKCDLVLDAAHEKSTESSSGPKREEIMESILFKCSDFVVVQFKDMDSSYAKRDAFTDSAISAKVNGEHKEKDLEPWDAGELTANEELEALENDVSNGWDPNDMFRYNEENYGVVSTYDSSLSSYTVPLERDNSEEFLKREARANQLAEEIESSAQYKARVALENDDRSEEEKYTAVQRNSSEREGHSINTRENKYIPPGQRNREVISWGSGRQNSPRMGQPGSGSMPSRSTSHTSDFNPNSGSDQRVVNGGVPWPSPCPSPSSRPPSRYQSGPNSLPPRAATPTRPPSRPPSRPSRPPSHPSAHGSPAPVSTMPKRMSSEGPPRMSPKAQRHPRNHRVSAGRGSISSGLEFVSHNPPSEAATPPVARTSPSGGTWSSVVSGVPRLSPKTHRPRSPRQNSIGNTPSGPVLASPQAGIIPTEAVAMPIPAASPTPASPASNRAVTPSSEAKDSRLQDQRQNSPAGNKENIKPNETSPSFSKAENKGISPVVSEHRKQIDDLKKFKNDFRLQPSSTSESMDQLLNKNREGEKSRDLIKDKIEPSAKDSFIENSSSNCTSGSSKPNSPSISPSILSNTEHKRGPEVTSQGVQTSSPACKQEKDDKEEKKDAAEQVRKSTLNPNAKEFNPRSFSQPKPSTTPTSPRPQAQPSPSMVGHQQPTPVYTQPVCFAPNMMYPVPVSPGVQPLYPIPMTPMPVNQAKTYRAVPNMPQQRQDQHHQSAMMHPASAAGPPIAATPPAYSTQYVAYSPQQFPNQPLVQHVPHYQSQHPHVYSPVIQGNARMMAPPTHAQPGLVSSSATQYGAHEQTHAMYACPKLPYNKETSPSFYFAISTGSLAQQYAHPNATLHPHTPHPQPSATPTGQQQSQHGGSHPAPSPVQHHQHQAAQALHLASPQQQSAIYHAGLAPTPPSMTPASNTQSPQNSFPAAQQTVFTIHPSHVQPAYTNPPHMAHVPQAHVQSGMVPSHPTAHAPMMLMTTQPPGGPQAALAQSALQPIPVSTTAHFPYMTHPSVQAHHQQQL | 1.35 log2 | 0.5906 log2
CPM (protein, UniProt P14384 18-423, looked up) Carboxypeptidase M: LDFNYHRQEGMEAFLKTVAQNYSSVTHLHSIGKSVKGRNLWVLVVGRFPKEHRIGIPEFKYVANMHGDETVGRELLLHLIDYLVTSDGKDPEITNLINSTRIHIMPSMNPDGFEAVKKPDCYYSIGRENYNQYDLNRNFPDAFEYNNVSRQPETVAVMKWLKTETFVLSANLHGGALVASYPFDNGVQATGALYSRSLTPDDDVFQYLAHTYASRNPNMKKGDECKNKMNFPNGVTNGYSWYPLQGGMQDYNYIWAQCFEITLELSCCKYPREEKLPSFWNNNKASLIEYIKQVHLGVKGQVFDQNGNPLPNVIVEVQDRKHICPYRTNKYGEYYLLLLPGSYIINVTVPGHDPHITKVIIPEKSQNFSALKKDILLPFQGQLDSIPVSNPSCPMIPLYRNLPDHS | -1.988 log2 | 0.5874 log2
